Test results: the RNAGym collection of RNA variant scans (doi:10.1073/pnas.2313332121)

B1: TPR t1 (parent)
chain: GACCAAUCUGCCCUCAGAGCUCGAGAACAUCUUCGGAUGCAGAGGAGGCAGGCUUCGGUGGCGCGAUAGCGCCAACGUCCUCAACCUCCAAUGCAUCCCACCACAUGAUGAUGCCUGAAGAGCCUUGGUUUUUUG

Variants of: B1
Assay: polymerase ribozyme fitness, log enrichment relative to wild type (log ratio); higher = more active; in vitro selection for triplet polymerase activity
Method in brief: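 Mutant libraries for each subunit of a heterodimeric triplet polymerase ribozyme were made by PCR and then transcribed. Each library underwent one round of in vitro selection in triplicate: annealing with a biotinylated primer, the partner subunit and triplets, frozen incubation at −7 °C, gel excision of extended constructs, streptavidin-bead capture and RT-PCR. Input and output libraries were Illumina-sequenced, and only genotypes with ≥10 input reads and ≥1 read per output were kept. Fitness is the logarithm, base 2, of genotype enrichment over wild-type enrichment, computed from inverse-variance-weighted replicate averages.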

| Variant | polymerase ribozyme fitness (log ratio) |
| --- | --- |
| A74U C88U U116A | -3.69 |
| C73G C123U | 0.00475 |
| A74U U112A G113C A118C G135U | -3.34 |
| A74C G120A U132G U134A | 0.272 |
| C76G U78C G135U | -1.36 |
| C72G U129G | -1.34 |
| C72G U129A | -1.02 |
| C72U A95G C98U G113A A118G | -4.04 |
| C73U C79G G113U | -5.88 |
| C73G C80U C123G | -0.835 |
| A74G C101U | 0.132 |
| U78C C101A | -0.679 |
| G77A C82A U109A | -4.87 |
| C73A C102A | -2.07 |
| A74C A90U | -0.572 |
| U78C C88A | -0.513 |
| G77A C82G | -1.13 |
| C73G C94A | -2.58 |
| C73G C94G | -1.94 |
| A75G U116A G117U C123U | -2.78 |
| A74U G77U C98U C102G | -6.8 |

| Variant | polymerase ribozyme fitness (log ratio) |
| --- | --- |
| G77U C79U U106A | -0.0765 |
| G77U C79U U106C | -0.595 |
| U78A C79A A95C | -4.32 |
| C72U U132A | -0.0764 |
| U78C G110U | -1.27 |
| U78C C80U C99U A121G | -3.12 |
| C72G C86A U87A | -4.6 |
| G77U A84G C85G | -2.45 |
| C73G A90G G113U A118C | -5.26 |
| C76G A95G | -0.229 |
| C73A A118G | 0.164 |
| C72U C86U G117A | -2.26 |
| C72A U78A C124A U132C U133A | 1.3 |
| C73U U106C | -0.194 |
| C73A C88U C99A A100C | -3.87 |
| C72U A91U | -1.73 |
| C73U C85G | -2.85 |
| C73U C85U | -0.444 |
| A74U C89U | -0.535 |
| C72U A84G C114A C115A | -6.51 |
| U78C A111C | 0.402 |

| Variant | polymerase ribozyme fitness (log ratio) |
| --- | --- |
| G77U A91U | -2.18 |
| C73A G77A | -0.332 |
| C73G U92A | -5.66 |
| C72U C76A C88A U96A | -3.05 |
| C72G C88U U92A | -3.52 |
| U78A A105G | -2.86 |
| C73G C97U A118U | -1.07 |
| G77U U92G C124U | -1.84 |
| C73G C115A | -1.04 |
| C72U C94G | -1.95 |
| C72G A103U | -5.45 |
| G77U U96A | -1.04 |
| C72G C86A G93C C104G A108U U109G A118G | -6.21 |
| A74U U109C | -4.13 |
| A74C A90C C101G | -3.22 |
| C72A U132A | -0.00723 |
| C73A C101A | -1 |
| G77C A90G A111G | -0.0361 |
| C73U G113A G117A | -6.9 |
| U78G | -0.246 |
| U78C | -0.247 |

| Variant | polymerase ribozyme fitness (log ratio) |
| --- | --- |
| U78A | -0.254 |
| U78C A84C U96G U116G | -3.6 |
| A74U C104A | -1.82 |
| G77C C89G G122U C123U | -1.58 |
| A75U A95C U116C U125C | -3.04 |
| C73A U78C | -0.268 |
| A74U C94U | -0.301 |
| C72U U78C C94U | -0.922 |
| C72U G113C C123G | -1.69 |
| C72U C124G | 1.47 |
| C72U U133C | 0.275 |
| A75G C85U U130C | -0.982 |
| C76G G77U U78G U112C | 2.21 |
| C72G C102U | -1.53 |
| C72U U78C C97U | -1.02 |
| G77C C102U | -2.02 |
| A75U C104U U106A | -0.439 |
| A74U C80U | -1.18 |
| U78C G135A | -1.44 |
| C72G G120C G128C | -3.07 |
| U78G C82G C99A U112G G128U | -6.81 |
